According to US20250136687A1 (SHANDONG SIMCERE BIOPHARMACEUTICAL, published 2025):
Read-outs that look alike come from different tables or passages of the source.

B1: F2B-hIgG1 (antibody, V domains shown)
VH: EVQLVESGGGLVQPGRSLRLSCAASGFTFDDYAMHWVRQAPGKGLEWVSGISWNSGSIGYADSVKGRFTISRDNAKNSLYLQMNSLRAEDTALYYCAKDSRGYGDYRLGGAYWGQGTLVTVSS
VL: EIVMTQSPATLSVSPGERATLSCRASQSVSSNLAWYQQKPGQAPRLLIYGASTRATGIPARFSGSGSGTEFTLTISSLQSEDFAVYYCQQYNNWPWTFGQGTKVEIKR
notes: also called F2Bs
B2: 40G5c-hIgG1 (antibody, V domains shown)
VH: EVQLVQSGAEVKKPGASVKVSCKASGYTFTNYYIHWVRQAPGQGLEWIGWIYPGDGNTKYNEKFKGRATLTADTSTSTAYLELSSLRSEDTAVYYCARDSYSNYYFDYWGQGTLVTVSS
VL: DIVMTQSPDSLAVSLGERATINCKSSQSLLNSRTRKNYLAWYQQKPGQPPKLLIYWASTRESGVPDRFSGSGSGTDFTLTISSLQAEDVAVYYCTQSFILRTFGQGTKVEIKR

Legend:
[1] = target: T1, human CD3 on the cell surface (Jurkat cells, expanded human T cells, Jurkat-Lucia NFAT cells, human PBMC) (human, UniProt P07766 23-207; P04234 22-171; P09693 23-182); assay: cell-based or functional assay
[2] = target: T2, recombinant human CD3ε-ECD His protein (human, UniProt P07766 23-126); assay: ELISA, coated antigen
T2 construct: extracellular domain; also called human CD3ε-His; CD3ε antigen protein; not shown: His tag
Method: (§1) To detect the binding activity of the humanized antibodies to CD3 protein, CD3 protein was diluted with PBS to the final concentration of […], then added to a 96-well ELISA plate at 50 μL/well, and the plate was sealed with a plastic film, and incubated overnight at 4° C. On the next day, the plate was washed 2 times with PBS, and a blocking solution [PBS+2% (v/v) BSA] was added for blocking at room temperature for 2 h. The blocking solution was poured off, and the antibody (initial concentration of 100 nM, and gradient dilution at 1:10) or a negative control antibody was added at 50 µl/well. After incubation at 37° C. for 2 h, the plate was washed 3 times with PBS. […] TMB substrate was added at 50 μl/well, and incubated at room temperature for 10 min, and then a stop solution (1.0 N HCl) was added at 50 μl/well. The OD450 nm values were read by an ELISA microplate reader (Multimode Plate Reader, EnSight, purchased from Perkin Elmer).

human CD3ε/δ-His [3] = target: T3, human CD3ε/δ-His (human, UniProt P07766 23-126; P04234 22-105); assay: ELISA, coated antigen
T3 construct: Bought recombinant heterodimer with His tag; also called human CD3ε/δ protein
Method: as §1

[4] = target: T1, human CD3 on the cell surface (Jurkat …); assay: FACS, expanded human T cells
Method: (§2) The binding of the chimeric antibodies to CD3 on the cell surface was analyzed by detecting the binding of the antibodies to Jurkat cells and human T cells. Suspension cells Jurkat cells were scale-up cultured in T-75 cell culture flasks to the logarithmic growth phase, the supernatant of the medium was discarded by centrifugation, and the cell pellet was washed 2 times with PBS for later use. The expanded human T cells were washed 2 times with PBS for later use. After counting the cells in the previous step, the cell pellet was resuspended with [PBS+2% (w/w) BSA] blocking solution to 4×10⁶ cells/ml, and added to a 96-well FACS reaction plate at 50 μl/well, and then the chimeric antibody to be tested was added at 50 μl/well, and incubated at 4° C. for 1 h. The cells were centrifuged and washed 3 times with a PBS buffer. […] The cells were centrifuged and washed 5 times with PBS, and FACS (FACS Canto™, purchased from BD Company) was used for detection and result analysis. Data analysis was performed by software (CellQuest) to obtain the mean fluorescence […] (MFI) of the cells. And then software (GraphPad Prism8) was used for analysis, data fitting, and EC50 value calculation. The same method was used to simultaneously detect the binding of the chimeric antibodies to endogenous CD3 negative cells MOLT4 cells.

[5] = target: T4, cynomolgus monkey CD3 on the surface of expanded monkey T cells (cynomolgus monkey, UniProt Q95LI5 22-198; Q95LI8 22-171; Q95LI7 23-181); assay: FACS, expanded monkey T cells, 4 nM antibody
T4 construct: whole, on cells; Endogenous CD3 within the TCR-CD3 complex on T cells expanded from cynomolgus monkey PBMC
Method: as §2
(§3) FACS detection and data analysis were performed on the cryopreserved monkey T cells of Example 2.4 according to the method in Example 5.1.

[6] = target: T1, human CD3 on the cell surface (Jurkat …); assay: cell-based or functional assay; remark: listed apart in the source
[7] = target: T1, human CD3 on the cell surface (Jurkat …); assay: FACS, Jurkat cells
Method: as §2

[8] = target: T2, recombinant human CD3ε-ECD His protein; assay: ELISA, coated antigen; remark: listed apart in the source
Method: as §1

human CD3ε/δ-His [9] = target: T3, human CD3ε/δ-His; assay: ELISA, coated antigen; remark: listed apart in the source
Method: as §1

[10] = target: T2, recombinant human CD3ε-ECD His protein; assay: SPR (Biacore), antibody captured on Protein A chip
[11] = target: T4, cynomolgus monkey CD3 on the surface of …; assay: FACS, expanded monkey T cells
Method: as §2, §3

T3 sequence (P07766 23-126, stated change not applied, form in doubt, chain 1 of 2): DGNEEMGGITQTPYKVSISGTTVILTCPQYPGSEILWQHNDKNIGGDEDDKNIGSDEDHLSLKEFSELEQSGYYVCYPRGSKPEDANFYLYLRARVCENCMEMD
T3 sequence (P04234 22-105, stated change not applied, form in doubt, chain 2 of 2): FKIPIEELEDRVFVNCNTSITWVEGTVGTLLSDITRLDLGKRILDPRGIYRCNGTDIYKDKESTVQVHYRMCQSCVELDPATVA
T2 sequence (P07766 23-126): as the sequence (P07766 23-126, stated change not applied, form in doubt, chain 1 of 2) above
T1 sequence (P07766 23-207, chain 1 of 3): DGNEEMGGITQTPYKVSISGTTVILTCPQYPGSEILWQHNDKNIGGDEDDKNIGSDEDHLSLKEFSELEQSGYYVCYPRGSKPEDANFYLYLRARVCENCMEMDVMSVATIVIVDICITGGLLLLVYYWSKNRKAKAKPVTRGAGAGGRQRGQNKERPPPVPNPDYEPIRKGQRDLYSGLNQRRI
T1 sequence (P04234 22-171, chain 2 of 3): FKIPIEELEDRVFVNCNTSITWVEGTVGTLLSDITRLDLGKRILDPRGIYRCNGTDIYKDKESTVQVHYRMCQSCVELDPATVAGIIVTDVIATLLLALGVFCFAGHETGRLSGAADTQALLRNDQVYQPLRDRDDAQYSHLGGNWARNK
T1 sequence (P09693 23-182, chain 3 of 3): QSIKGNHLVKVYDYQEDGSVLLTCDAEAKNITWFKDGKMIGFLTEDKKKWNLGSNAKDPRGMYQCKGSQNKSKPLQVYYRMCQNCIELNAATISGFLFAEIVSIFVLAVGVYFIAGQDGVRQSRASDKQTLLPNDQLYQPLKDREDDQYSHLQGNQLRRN
T4 sequence (Q95LI5 22-198, chain 1 of 3): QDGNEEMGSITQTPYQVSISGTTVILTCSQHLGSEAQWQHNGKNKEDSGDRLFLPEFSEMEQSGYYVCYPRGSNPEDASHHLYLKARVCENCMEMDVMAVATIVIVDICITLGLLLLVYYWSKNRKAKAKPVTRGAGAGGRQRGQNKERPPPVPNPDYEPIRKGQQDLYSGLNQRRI
T4 sequence (Q95LI8 22-171, chain 2 of 3): as the sequence (P04234 22-171, chain 2 of 3) above, with I5V, N15K, I20V, S32T, D33N, I34N, T64A, S74N, V83L, H141R counted along it
T4 sequence (Q95LI7 23-181, chain 3 of 3): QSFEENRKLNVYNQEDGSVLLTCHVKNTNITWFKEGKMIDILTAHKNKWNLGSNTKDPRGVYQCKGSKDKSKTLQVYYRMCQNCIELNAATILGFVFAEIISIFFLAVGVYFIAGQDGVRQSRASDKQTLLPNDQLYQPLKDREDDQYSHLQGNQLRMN

Row | Binder | Maximum response value (RLU) [1] [RLU] | max-OD450 [2] [OD450] | max-OD450 (human CD3ε/δ-His [3]) [OD450] | EC50 [4] [nM] | MFI_Max [4] [MFI] | MFI at antibody concentration 4 nM [5] [MFI] | Maximum response value (RLU) [6] [RLU] | EC50 [7] [nM] | MFI_Max [7] [MFI] | max-OD450 [8] [OD450] | max-OD450 (human CD3ε/δ-His [9]) [OD450] | also measured
1 | B1 | 12000 | 0.1 | 0.16 | 10.4 | 1980 | 63 | 8220 | 8.77 | 841 | 0.05 | 0.16 | binding result [2]: no binding (tested: 100 nM (initial concentration))
2 | B2 | 46900 | 3.09 | 2.83 | 0.7 | 12300 | 41000 | 25400 | 0.16 | 6340 | 1.49 | 2.83 | Kd [10]: 0.203 nM; koff [10]: 0.000321 s⁻¹; kon [10]: 1.58e+06 M⁻¹ s⁻¹; EC50 [11]: 0.28 nM; MFI_Max [11]: 66000 MFI; EC50 (nM), luciferase reporter, Jurkat-Lucia NFAT cells [1]: 5.97 nM; EC50 [2]: 0.118 nM; EC50 (human CD3ε/δ-His [3]): 0.36 nM; EC50 (nM), luciferase reporter, Jurkat-Lucia NFAT cells [6]: 22.5 nM; EC50 [8]: 0.22 nM; EC50 (human CD3ε/δ-His [9]): 0.36 nM
